# Experimental data published in patent publication US20220251518A1 (published 2022).
# Target: T1, Aβ1-42, monomer and/or protofibrils (form not told for the result) (human, UniProt P05067 672-713)
# T1 construct: domain: amyloid beta (Aβ) 1-42 peptide; also called Aβ1-42 peptide or protofibrils; mixture of Aβ1-42 peptide (monomer) and protofibrils
# Assay: BLI (Octet RED 96), antibody captured on anti-rat IgG probe; monomer or protofibrils not told
# T1 sequence (P05067 672-713 limits assumed): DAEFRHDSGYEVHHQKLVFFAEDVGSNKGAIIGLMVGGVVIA
binder,measurement,value
"monoclonal antibody 11G10 (antibody, V domains shown) VH: EVQLQQSGAEIVKPGASVKLSCKASGYTFTSYWMHWVKQRPGQGLEWIGEIDPSDSYTNYNQKFKGKATLTVDKSSSTAYMQLRSLTSEDSAVYYCARSFHGNLFVYWGQGTLVTVSA VL: QIVLTQSPAIMSASPGEKVTITCSASSSVSYMHWFQQKPGTSPKLWIYSTSNLATGVPARFSGSGSGTSYSLTISRMEAEDAATYYCQQRSSYPLTFGAGTKLEIK",Kd,1 pM
